We go through 3 substances from patent US20260132200A1.

The EC50 is the concentration giving half of the maximal effect.

Test [1] has as its target human CD3 expressed on cells (Jurkat, a CD3+ human T-cell line; human T cells) (human) (UniProt P07766). Nature of the test: cell-based or functional assay.
Test [2] has the same target. Nature of the test: cell-based or functional assay. The source holds these as a separate data set.
In test [3] the target is cynomolgus monkey CD3 on monkey T cells (CD2+CD4+ cells of cynomolgus PBMCs) (cynomolgus monkey) (UniProt Q95LI5). The experiment in a line: FACS on monkey PBMCs, CD2+CD4+ T cells.
Chain of cynomolgus monkey CD3 on monkey T cells (CD2+CD4+ cells of cynomolgus PBMCs) (cynomolgus monkey) (Q95LI5 22-198): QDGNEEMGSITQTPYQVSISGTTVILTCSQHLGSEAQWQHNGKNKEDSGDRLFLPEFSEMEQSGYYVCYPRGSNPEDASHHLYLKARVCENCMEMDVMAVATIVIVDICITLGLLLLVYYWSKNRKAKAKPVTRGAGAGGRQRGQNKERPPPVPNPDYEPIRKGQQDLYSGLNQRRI
Test [4] has the same target. The experiment in a line: FACS on cynomolgus PBMCs, CD2+CD4+ T cells.
Test [5] has as its target human CD20 expressed on Raji cells (CD3-, CD20+ human B-cell line) (human) (UniProt P11836). Nature of the test: cell-based or functional assay.

Like-named read-outs stand apart in the source and are kept apart here.

Chain of human CD20 expressed on Raji cells (CD3-, CD20+ human B-cell line) (human) (P11836 whole entry): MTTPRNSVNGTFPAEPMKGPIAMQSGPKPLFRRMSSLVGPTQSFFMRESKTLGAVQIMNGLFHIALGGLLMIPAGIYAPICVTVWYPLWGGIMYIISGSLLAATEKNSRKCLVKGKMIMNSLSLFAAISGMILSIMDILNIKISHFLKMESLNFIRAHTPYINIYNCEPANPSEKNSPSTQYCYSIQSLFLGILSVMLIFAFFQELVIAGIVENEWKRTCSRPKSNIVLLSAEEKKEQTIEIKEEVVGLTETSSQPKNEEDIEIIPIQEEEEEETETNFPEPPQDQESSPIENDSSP

For the substance “OKT-3, mouse monoclonal antibody against human T-cell surface antigens (ATCC CRL-8001)”, the U937 Cytotoxicity Human T-cells [M] (EC50) in test [1] was determined as 2.35e-12 M; in test [2], 3.04e-12 M.
For “SP34, mouse monoclonal antibody reactive against the epsilon chain of the T3 complex on human T lymphocyte cells”, the 50% effective concentration (EC50) in test [3] and in test [4] was 0.0703 nM in each case.
For the substance “Control III: anti-CD20 therapeutic antibody with heavy and light chain sequences of Rituxan (Rituximab)”, in test [5], the CDC EC50, Raji was determined as 0.0966 nM; the CDC EC50, Raji SCID1 turned out to be 85.6 nM; the CDC EC50, Raji SCID2 turned out to be 0.0587 nM; the CDC EC50, Raji SCID3 is 25.5 nM. This substance also returned a CDC EC50, Raji SCID4 in test [5] of 5.29 nM.
